Results published in publication PMC4987126 (Molecular immunology, 2016).

Biological target: T1, synthetic peptide of the C1q A chain, residues 14–26 (collagen region)
T1 peptide: AGRPGRRGRPGLK
Experiment: ELISA

PWNASWSNKSLDDIWNC [gp41-3S, 17-residue synthetic peptide corresponding to the 3S motif of gp41]: binds.
